Data published in article PMC3409459, “Absorption, distribution, metabolism and excretion of peginesatide, a novel erythropoiesis-stimulating agent, in rats” (Xenobiotica; the Fate of Foreign Compounds in Biological …, 2011).

Test: Tissue distribution of radioactivity by LSC following combustion, albino rats
Assay type: in vivo, male Sprague-Dawley (albino) rats
Conditions: mean ± SD, n=3
Experimental: Total captured radioactivity was subsequently measured via LSC.
Male Sprague-Dawley (albino) rats (n = 21; three per time point) were administered a single IV dose of 5 mg·kg^−1 [^14C]-peginesatide (27.5 μCi/kg) and tissue concentrations of radioactivity determined at 0.25, 6, and 24 h, and 7,14,30 and 60 days following dosing. Similarly, male Long Evans (pigmented) rats (n = 21; three per time point) were administered a single IV dose of 5 mg-kg^−1 [^14C]-peginesatide and plasma, skin, and eye concentrations of radioactivity were measured at the various time points through 60 days after dosing. At each time point, blood was collected, the animals sacrificed, and tissues excised. Tissues collected from the Sprague-Dawley rats included blood, plasma, adrenals, bone marrow, brain, eyes, fat, femur, Harderian glands, heart, hypophysis, intestine, kidneys, lungs, liver, pancreas, skeletal muscle, skin, spinal cord, spleen, stomach, submaxillary glands, testes, thymus, thyroid gland, and urinary bladder. Plasma, eyes, non-pigmented skin, and pigmented skin were collected from Long Evans rats. All tissue samples were measured for radioactivity by LSC following combustion. The liver and intestine were first homogenized in distilled water (20% w/v) prior to analysis. The concentration of radioactivity in the blood, plasma, and tissues was calculated and expressed as ug equiv·g^-1 or mLbased on the LSC counts and the specific activity of the dosing solution.

[1] = 7 Days after single IV 5 mg·kg^−1, LSC
[2] = 14 Days after single IV 5 mg·kg^−1, LSC
[3] = 30 Days after single IV 5 mg·kg^−1, LSC
[4] = 60 Days after single IV 5 mg·kg^−1, LSC

Peginesatide
Concentration of the radioactivity, Adrenals [1]: 10.2 ± 1.31 μg equiv·g^−1 or mL | Concentration of the radioactivity, Blood [1]: 3.87 ± 0.291 μg equiv·g^−1 or mL | Concentration of the radioactivity, Bone (femur) [1]: 0.788 ± 0.374 μg equiv·g^−1 or mL | Concentration of the radioactivity, Bone marrow [1]: 8.87 ± 0.641 μg equiv·g^−1 or mL | Concentration of the radioactivity, Brain [1]: 0.200 ± 0.021 μg equiv·g^−1 or mL | Concentration of the radioactivity, Eyes [1]: 0.885 ± 0.111 μg equiv·g^−1 or mL | Concentration of the radioactivity, Fat [1]: 2.11 ± 0.693 μg equiv·g^−1 or mL | Concentration of the radioactivity, Harderian glands [1]: 4.41 ± 0.100 μg equiv·g^−1 or mL | Concentration of the radioactivity, Heart [1]: 4.01 ± 0.344 μg equiv·g^−1 or mL | Concentration of the radioactivity, Intestine [1]: 3.05 ± 0.259 μg equiv·g^−1 or mL | Concentration of the radioactivity, Kidneys [1]: 5.68 ± 0.386 μg equiv·g^−1 or mL | Concentration of the radioactivity, Liver [1]: 12.5 ± 0.727 μg equiv·g^−1 or mL | Concentration of the radioactivity, Lungs [1]: 4.26 ± 0.285 μg equiv·g^−1 or mL | Concentration of the radioactivity, Pancreas [1]: 9.74 ± 0.231 μg equiv·g^−1 or mL | Concentration of the radioactivity, Pituitary [1]: 8.31 ± 0.594 μg equiv·g^−1 or mL | Concentration of the radioactivity, Plasma [1]: 7.80 ± 0.541 μg equiv·g^−1 or mL | Concentration of the radioactivity, Skeletal muscle [1]: 0.563 ± 0.119 μg equiv·g^−1 or mL | Concentration of the radioactivity, Skin [1]: 3.06 ± 0.055 μg equiv·g^−1 or mL | Concentration of the radioactivity, Spinal cord [1]: 0.129 ± 0.067 μg equiv·g^−1 or mL | Concentration of the radioactivity, Spleen [1]: 11.5 ± 0.204 μg equiv·g^−1 or mL | Concentration of the radioactivity, Stomach [1]: 2.36 ± 0.262 μg equiv·g^−1 or mL | Concentration of the radioactivity, Submandibular lymph nodes [1]: 10.6 ± 0.553 μg equiv·g^−1 or mL | Concentration of the radioactivity, Testes [1]: 4.98 ± 0.222 μg equiv·g^−1 or mL | Concentration of the radioactivity, Thymus [1]: 3.39 ± 0.560 μg equiv·g^−1 or mL | Concentration of the radioactivity, Thyroid gland [1]: 17.0 ± 5.26 μg equiv·g^−1 or mL | Concentration of the radioactivity, Urinary bladder [1]: 4.52 ± 1.01 μg equiv·g^−1 or mL | Concentration of the radioactivity, Adrenals [2]: 9.15 ± 2.39 μg equiv·g^−1 or mL | Concentration of the radioactivity, Blood [2]: 1.03 ± 0.229 μg equiv·g^−1 or mL | Concentration of the radioactivity, Bone (femur) [2]: 0.388 ± 0.054 μg equiv·g^−1 or mL | Concentration of the radioactivity, Bone marrow [2]: 6.33 ± 0.683 μg equiv·g^−1 or mL | Concentration of the radioactivity, Brain [2]: 0.102 ± 0.014 μg equiv·g^−1 or mL | Concentration of the radioactivity, Eyes [2]: 0.765 ± 0.022 μg equiv·g^−1 or mL | Concentration of the radioactivity, Fat [2]: 1.14 ± 0.475 μg equiv·g^−1 or mL | Concentration of the radioactivity, Harderian glands [2]: 5.21 ± 0.433 μg equiv·g^−1 or mL | Concentration of the radioactivity, Heart [2]: 2.73 ± 0.254 μg equiv·g^−1 or mL | Concentration of the radioactivity, Intestine [2]: 1.78 ± 0.297 μg equiv·g^−1 or mL | Concentration of the radioactivity, Kidneys [2]: 4.49 ± 1.02 μg equiv·g^−1 or mL | Concentration of the radioactivity, Liver [2]: 8.53 ± 0.754 μg equiv·g^−1 or mL | Concentration of the radioactivity, Lungs [2]: 3.38 ± 0.703 μg equiv·g^−1 or mL | Concentration of the radioactivity, Pancreas [2]: 9.10 ± 0.629 μg equiv·g^−1 or mL | Concentration of the radioactivity, Pituitary [2]: 6.25 ± 1.17 μg equiv·g^−1 or mL | Concentration of the radioactivity, Plasma [2]: 2.00 ± 0.605 μg equiv·g^−1 or mL | Concentration of the radioactivity, Skeletal muscle [2]: 0.379 ± 0.108 μg equiv·g^−1 or mL | Concentration of the radioactivity, Skin [2]: 1.70 ± 0.109 μg equiv·g^−1 or mL | Concentration of the radioactivity, Spinal cord [2]: 0.069 ± 0.030 μg equiv·g^−1 or mL | Concentration of the radioactivity, Spleen [2]: 23.6 ± 2.82 μg equiv·g^−1 or mL | Concentration of the radioactivity, Stomach [2]: 2.00 ± 0.118 μg equiv·g^−1 or mL | Concentration of the radioactivity, Submandibular lymph nodes [2]: 10.9 ± 1.32 μg equiv·g^−1 or mL | Concentration of the radioactivity, Testes [2]: 5.19 ± 0.448 μg equiv·g^−1 or mL | Concentration of the radioactivity, Thymus [2]: 1.81 ± 0.249 μg equiv·g^−1 or mL | Concentration of the radioactivity, Thyroid gland [2]: 13.2 ± 3.52 μg equiv·g^−1 or mL | Concentration of the radioactivity, Urinary bladder [2]: 2.30 ± 0.326 μg equiv·g^−1 or mL | Concentration of the radioactivity, Adrenals [3]: 7.90 ± 1.57 μg equiv·g^−1 or mL | Concentration of the radioactivity, Blood [3]: 0.466 ± 0.054 μg equiv·g^−1 or mL | Concentration of the radioactivity, Bone (femur) [3]: 0.278 ± 0.057 μg equiv·g^−1 or mL | Concentration of the radioactivity, Bone marrow [3]: 4.12 ± 1.37 μg equiv·g^−1 or mL | Concentration of the radioactivity, Brain [3]: 0.080 ± 0.010 μg equiv·g^−1 or mL | Concentration of the radioactivity, Eyes [3]: 0.511 ± 0.147 μg equiv·g^−1 or mL | Concentration of the radioactivity, Fat [3]: 0.582 ± 0.070 μg equiv·g^−1 or mL | Concentration of the radioactivity, Harderian glands [3]: 3.88 ± 0.907 μg equiv·g^−1 or mL | Concentration of the radioactivity, Heart [3]: 1.57 ± 0.244 μg equiv·g^−1 or mL | Concentration of the radioactivity, Intestine [3]: 1.40 ± 0.183 μg equiv·g^−1 or mL | Concentration of the radioactivity, Kidneys [3]: 3.03 ± 0.429 μg equiv·g^−1 or mL | Concentration of the radioactivity, Liver [3]: 3.45 ± 0.808 μg equiv·g^−1 or mL | Concentration of the radioactivity, Lungs [3]: 1.78 ± 0.237 μg equiv·g^−1 or mL | Concentration of the radioactivity, Pancreas [3]: 6.67 ± 1.70 μg equiv·g^−1 or mL | Concentration of the radioactivity, Pituitary [3]: 7.24 ± 0.292 μg equiv·g^−1 or mL | Concentration of the radioactivity, Plasma [3]: 0.780 ± 0.099 μg equiv·g^−1 or mL | Concentration of the radioactivity, Skeletal muscle [3]: 0.152 ± 0.012 μg equiv·g^−1 or mL | Concentration of the radioactivity, Skin [3]: 0.889 ± 0.228 μg equiv·g^−1 or mL | Concentration of the radioactivity, Spinal cord [3]: 0.033 ± 0.016 μg equiv·g^−1 or mL | Concentration of the radioactivity, Spleen [3]: 17.7 ± 4.96 μg equiv·g^−1 or mL | Concentration of the radioactivity, Stomach [3]: 1.28 ± 0.106 μg equiv·g^−1 or mL | Concentration of the radioactivity, Submandibular lymph nodes [3]: 7.86 ± 1.19 μg equiv·g^−1 or mL | Concentration of the radioactivity, Testes [3]: 4.33 ± 1.00 μg equiv·g^−1 or mL | Concentration of the radioactivity, Thymus [3]: 1.14 ± 0.138 μg equiv·g^−1 or mL | Concentration of the radioactivity, Thyroid gland [3]: 13.9 ± 3.33 μg equiv·g^−1 or mL | Concentration of the radioactivity, Urinary bladder [3]: 1.77 ± 0.889 μg equiv·g^−1 or mL | Concentration of the radioactivity, Adrenals [4]: 5.32 ± 0.996 μg equiv·g^−1 or mL | Concentration of the radioactivity, Blood [4]: 0.170 ± 0.036 μg equiv·g^−1 or mL | Concentration of the radioactivity, Bone (femur) [4]: 0.046 ± 0.001 μg equiv·g^−1 or mL | Concentration of the radioactivity, Bone marrow [4]: 0.361 ± 0.142 μg equiv·g^−1 or mL | Concentration of the radioactivity, Brain [4]: 0.057 ± 0.006 μg equiv·g^−1 or mL | Concentration of the radioactivity, Eyes [4]: 0.299 ± 0.076 μg equiv·g^−1 or mL | Concentration of the radioactivity, Fat [4]: 0.456 ± 0.135 μg equiv·g^−1 or mL | Concentration of the radioactivity, Harderian glands [4]: 2.75 ± 0.281 μg equiv·g^−1 or mL | Concentration of the radioactivity, Heart [4]: 1.14 ± 0.205 μg equiv·g^−1 or mL | Concentration of the radioactivity, Intestine [4]: 0.624 ± 0.033 μg equiv·g^−1 or mL | Concentration of the radioactivity, Kidneys [4]: 2.11 ± 0.574 μg equiv·g^−1 or mL | Concentration of the radioactivity, Liver [4]: 1.17 ± 0.199 μg equiv·g^−1 or mL | Concentration of the radioactivity, Lungs [4]: 1.05 ± 0.238 μg equiv·g^−1 or mL | Concentration of the radioactivity, Pancreas [4]: 5.92 ± 0.436 μg equiv·g^−1 or mL
